Data set [1] has as its target Zif268 DNA-binding domain finger 3 Asp2Ala finger 3 helix position 2 D to A (UniProt P08046). The following applies: about four-fold reduced affinity versus wild-type Zif268; phage ELISA, Zn, 20 C.
The subject of data set [2] is anti-ras lead zinc finger peptide (designed) (synthetic). The following applies: apparent Kd; phage display.
The test system of data set [3] is anti-ras optimised zinc finger peptide (F1 position +3 Asn) (synthetic). The following applies: apparent Kd; phage display, Zn.
Data set [4] addresses F2-Arg finger 3 Asp2Ala finger 3 helix position 2 D to A (synthetic) (UniProt P08046). The following applies: about four-fold reduced affinity versus F2-Arg; phage ELISA, Zn, 20 C.

In turn, “GCGTGGGCG (double strand) [Zif268 consensus site]” gave a binding signal in data set [1] of 4 fold.

As for GACGGCGCC (double strand), the Kd is 17 nM in data set [2] and 3 nM in data set [3].

On to “GCGGTGGCG (double strand) [F2-Arg consensus site]”, for which the binding signal in data set [4] was 4 fold.
